The text below walks through data of patent publication US20060127393A1 (Amgen, published 2006).

Where only a bound is given, the exact number is not on record here.

Assay [1] deals with T1, CNBr2 fragment of human Dkk-1 (human, UniProt O94907 32-122; O94907 127-178).
T1 construct: Two peptides held together by disulfide bonds; represents disulfide domain 1
T1 sequence 1: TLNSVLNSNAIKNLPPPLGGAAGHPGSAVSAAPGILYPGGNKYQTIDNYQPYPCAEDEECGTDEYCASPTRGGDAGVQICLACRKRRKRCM
T1 sequence 2: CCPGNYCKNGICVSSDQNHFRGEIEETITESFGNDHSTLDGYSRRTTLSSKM
The assay is described as follows: BiaCore. The procedure:
To characterize this conformational epitope, a strategy was applied that involved fragmenting human Dkk-1 with cyanogen bromide (CNBr) and several different proteases, then testing the resulting fragments to see whether they could still bind to the 11H10 antibody. The resulting data permitted the location of the epitope to be determined. In brief, the peptide digests were incubated with or without the antibody, passed through a 10 K cut-off membrane to trap any peptides that had become bound to the antibody (˜150,000 Da), then subjected to HPLC peptide mapping. […] The individual HPLC peaks were collected and the peptides identified and mapped by N-terminal sequencing. To determine if the peptides could bind 11H10, they were subjected to real time biospecific interaction assays with a BiaCore work station, using Protein A-trapped anti-Dkk-1 antibody as a biosensor for binding.
CNBr cleavage of hDkk-1 generated two large fragments, CNBr1 and CNBr2. These represented, respectively, disulfide domain 2 and disulfide domain 1. […] CNBr2 similarly consisted of two peptides (amino acids 32-122 of SEQ ID NO:2 and amino acids 127-178 of SEQ ID NO:2), also held together by disulfide bonds. […] Thus, it was concluded that 11H10 binds to an epitope located in disulfide domain 2 of Dkk-1.
For orientation: Surface plasmon resonance follows binding to a sensor surface in real time, without labels.

Assay [2] concerns the target T2, human Dkk-1 (human, UniProt O94907 32-266, carbohydrate moieties attached to Asn256).
T2 sequence: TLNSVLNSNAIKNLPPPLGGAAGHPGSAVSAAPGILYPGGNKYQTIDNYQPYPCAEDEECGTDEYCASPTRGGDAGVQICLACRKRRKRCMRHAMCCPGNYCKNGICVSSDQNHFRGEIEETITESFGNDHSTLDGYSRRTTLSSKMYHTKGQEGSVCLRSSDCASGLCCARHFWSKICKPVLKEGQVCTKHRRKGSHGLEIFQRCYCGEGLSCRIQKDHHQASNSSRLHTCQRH
The assay is described as follows: cell-based or functional assay.

Assay [3] addresses T3, murine Dkk-1 (mouse, UniProt O54908 32-272).
T3 sequence: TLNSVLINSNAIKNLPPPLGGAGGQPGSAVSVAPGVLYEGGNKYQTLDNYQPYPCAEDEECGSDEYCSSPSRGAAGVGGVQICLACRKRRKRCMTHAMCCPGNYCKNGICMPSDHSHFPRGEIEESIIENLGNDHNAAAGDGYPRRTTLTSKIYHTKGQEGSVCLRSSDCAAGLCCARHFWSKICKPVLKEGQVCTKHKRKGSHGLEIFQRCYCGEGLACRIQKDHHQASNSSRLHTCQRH
Nature of the assay: cell-based or functional assay.

The target in assay [4] is T2, human Dkk-1. The assay is described as follows: cell-based or functional assay. This is another data set of the same source.
Assay [5] concerns the target T3, murine Dkk-1. The assay is described as follows: cell-based or functional assay. This is another data set of the same source.
For assay [6], the target named is rat Dkk-1 (rat). The assay is described as follows: cell-based or functional assay.
For assay [7], the target named is T2, human Dkk-1. Nature of the assay: KinExA 3000 equilibrium binding in solution, Dkk-1-coated beads. From the text: (§1) It was apparent from the BiaCore results that 11H10 had the higher affinity for Dkk-1, and that its affinity for target exceeded the sensitivity limits of the BiaCore assay. Accordingly, the affinity of binding of 11H10 to Dkk-1 was further assessed by an equilibrium binding analysis using the more sensitive KinExA® 3000 (Sapidyne Instruments Inc., Boise, Id.). For these measurements, Reacti-Gel 6× beads (Pierce, Rockford, Ill.) were pre-coated with either mouse, rat or human Dkk-1 and blocked with BSA. One hundred pM, 300 pM, or 1000 pM of the 11H10 antibody was mixed with various concentrations of human, mouse or rat Dkk-1, ranging in concentration from 1 pM to 50 nM, and equilibrated at room temperature for 8 hours. The mixtures were then passed over the Dkk-1-coated beads. The amount of bead-bound anti-Dkk-1 antibody was quantified using goat anti-rat-IgG antibody labeled with a fluorescent tag (Cy5; Jackson Immuno Research, West Grove, Pa.). The amount of fluorescent signal measured was proportional to the concentration of free anti-Dkk-1 antibody in each reaction mixture at equilibrium. The dissociation equilibrium constant (Kd) was obtained from nonlinear regression of the competition curves using a dual-curve one-site homogeneous binding model using the KinExA software.
On the technique in general: In KinExA the mixture passes briefly over coated beads that capture the unbound partner.

In assay [8] the target is T3, murine Dkk-1. The assay is described as above.
From the text: as §1

Assay [9] has as its target rat Dkk-1 (rat). The description is as above.
From the text: as §1

Assay [10] has as its target T2, human Dkk-1. Nature of the assay: SPR, BiaCore 2000, Dkk-1 immobilized on CM5 chip, antibody injected. The procedure:
(§2) Kinetic analyses were performed to study the binding of the 11H10 and 1F11 antibodies to Dkk-1 using BiaCore 2000 (BIACORE, Uppsala, Sweden). Rat Dkk-1 (260 μg/ml), murine Dkk-1 (690 μg/ml) and human Dkk-1(900 μg/ml) were immobilized on a CM5 chip surface, and various concentrations (0.78 nM to about 100 nM) of the antibodies were injected over the immobilized Dkk-1 surfaces. The binding sensorgrams were analyzed using BIAevaluation 3.2.

Assay [11] concerns the target T3, murine Dkk-1. The description is as above. The procedure: as §2
The target of assay [12] is rat Dkk-1 (rat). Described as above. The procedure: as §2

B1: 11H10 monoclonal antibody (rat) (antibody, IgG1, V domains shown)
VH: EVQLVESGGGLVQPANSLKLSCAASGFTFSDYAMAWVRQSPKKGLEWVATIIYDGSSTYYRDSVKGRFTISRDNAKSTLYLQMDSLRSEDTATYYCATGLGIATDYFDYWGQGVLVTVSS
VL: DIRMTQSPASLSASLGETVNIECLASEDIYSDLAWYQQKPGKSPQLLIYNANSLQNGVPSRFSGSGSGTQYSLKINSLQSEDVATYFCQQYNNYPPTFGGGTKLELKR
notes: Rat hybridoma antibody of the IgG1 isotype; also called rat 11H10; L1H1
Broadly, the Kd is the concentration at which binding is half-saturated. Broadly, the koff is a measure of how fast the partners let go of each other. A high value points to fast dissociation. In general, kon refers to the second-order rate constant of association. Regarding B1, the binding result in assay [1] is “no binding”. For the same molecule, the results for the “EC50 (nM), restoring ALP activity in ST2 cells given Wnt3a and Dkk-1” value in the assay with human Dkk-1 [2] and with murine Dkk-1 [3] were 3.5 nM and 6.1 nM, respectively. The “EC50 (nM), TCF-lef luciferase assay” value with human Dkk-1 [4] was found to be 4 nM; in the assay with murine Dkk-1 [5], 11.5 nM; with rat Dkk-1 [6] it was 5 nM. In addition, the Kd with human Dkk-1 [7] is 0.13 nM; with murine Dkk-1 [8], 0.165 nM; with rat Dkk-1 [9], 0.54 nM; with human Dkk-1 [10] it was < 0.1 nM; with murine Dkk-1 [11], < 0.1 nM; in the assay with rat Dkk-1 [12] it was 0.29 nM. For the same molecule, the results for the koff with human Dkk-1 [10], in the assay with murine Dkk-1 [11] and in the assay with rat Dkk-1 [12] were < 5e-05 s⁻¹, < 5e-05 s⁻¹ and 1.54e-05 s⁻¹, respectively. Besides, the figures for the kon in the assay with human Dkk-1 [10], with murine Dkk-1 [11] and in the assay with rat Dkk-1 [12] were 52000 M⁻¹ s⁻¹, 54000 M⁻¹ s⁻¹ and 54000 M⁻¹ s⁻¹, respectively.
